US20260234245A1 (ELTHERA, published 2026)
Changes are numbered by the printed parent chain. One block for each binder: values may come before it.

How the values were obtained:
[1] = target: T1, recombinant human NrCAM-human Fc fusion protein (human, UniProt Q92823 25-1167, limits assumed); test: direct ELISA on plate-coated human NrCAM (panel titled 'human NrCAM-His'; the text calls it an NrCAM-human Fc fusion), HRP goat anti-mouse detection
T1 construct: also called plate-coated human NrCAM; Neuronal cell adhesion molecule (NrCAM)
T1 sequence (Q92823 25-1167 limits assumed): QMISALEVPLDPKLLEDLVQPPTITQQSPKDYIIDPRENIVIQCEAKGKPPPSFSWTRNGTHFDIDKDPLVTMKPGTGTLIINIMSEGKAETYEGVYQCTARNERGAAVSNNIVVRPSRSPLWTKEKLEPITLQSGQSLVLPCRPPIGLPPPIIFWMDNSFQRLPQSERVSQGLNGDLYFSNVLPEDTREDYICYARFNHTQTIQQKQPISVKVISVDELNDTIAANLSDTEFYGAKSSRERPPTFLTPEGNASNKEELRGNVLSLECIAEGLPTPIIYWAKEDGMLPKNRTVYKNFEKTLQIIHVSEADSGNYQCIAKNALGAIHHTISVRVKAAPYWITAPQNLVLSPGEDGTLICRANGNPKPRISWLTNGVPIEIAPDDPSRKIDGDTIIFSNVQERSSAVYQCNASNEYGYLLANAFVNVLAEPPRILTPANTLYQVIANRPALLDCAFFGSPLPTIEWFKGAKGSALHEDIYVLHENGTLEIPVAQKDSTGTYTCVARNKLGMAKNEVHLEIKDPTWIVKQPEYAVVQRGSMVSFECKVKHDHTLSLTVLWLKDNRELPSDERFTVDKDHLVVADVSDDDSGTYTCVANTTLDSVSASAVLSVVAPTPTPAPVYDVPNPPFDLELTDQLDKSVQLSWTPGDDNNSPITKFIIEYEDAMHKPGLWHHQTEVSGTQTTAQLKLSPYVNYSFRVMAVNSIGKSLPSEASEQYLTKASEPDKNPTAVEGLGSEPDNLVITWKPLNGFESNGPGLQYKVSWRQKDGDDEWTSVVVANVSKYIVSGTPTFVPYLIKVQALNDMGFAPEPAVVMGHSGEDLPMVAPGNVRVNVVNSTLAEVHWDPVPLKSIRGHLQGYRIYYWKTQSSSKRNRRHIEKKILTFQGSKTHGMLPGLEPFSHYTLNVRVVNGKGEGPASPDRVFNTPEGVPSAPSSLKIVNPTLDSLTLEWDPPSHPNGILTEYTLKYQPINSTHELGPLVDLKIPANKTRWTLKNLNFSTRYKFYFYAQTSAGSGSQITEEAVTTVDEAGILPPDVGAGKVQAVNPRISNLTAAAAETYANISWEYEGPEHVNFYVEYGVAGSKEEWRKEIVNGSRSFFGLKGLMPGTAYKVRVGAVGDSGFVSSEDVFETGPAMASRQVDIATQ
Experimental: (§1) Recombinant human L1CAM-human Fc and human NrCAM-human Fc fusion proteins, as well as recombinant hexahistidine-tagged versions of human CHL1 and Neurofascin, respectively, were added to ELISA plates at a concentration of 1 μg/mL in 50 mM carbonate buffer pH 9.6 (100 μL per well). Plates were incubated overnight at 4° C., washed 5 times with PBS/0.05% Tween, and blocked by the addition of 200 μL per well PBS/0.05% Tween/1% Bovine serum albumin (BSA). […] As positive controls the same dilution series were prepared for commercial mouse antibodies directed against L1CAM (clone UJ127.11, NovusBio), human NrCAM (clone 308000, Creative Diagnostics), human CHL1 (clone 6E6E4, Sino Biological) and human Neurofascin (clone 727030, R&D systems). Plates were washed 5 times with PBS/0.05% Tween, and 100 μL per well of the antibody dilution series were added to the plates. After an incubation for 1 hour at room temperature, plates were washed again and 100 μL per well of a horse-radish peroxidase conjugated polyclonal goat anti-mouse antibody (diluted 1:1000 in PBS/0.05% Tween/1% BSA) was added. […] After an incubation of 8 minutes at room temperature, reactions were stopped by the addition of 50 μL per well 0.16 M H₂SO₄, and absorption at 450 nm was determined in a microplate reader.

[2] = target: T2, recombinant hexahistidine-tagged human CHL1 (human, UniProt O00533 25-1082, limits assumed); test: direct ELISA on plate-coated human CHL1-His, HRP goat anti-mouse detection
T2 construct: Hexahistidine-tagged; also called plate-coated human CHL1; close homolog of L1 (CHL1)
T2 sequence (looked up): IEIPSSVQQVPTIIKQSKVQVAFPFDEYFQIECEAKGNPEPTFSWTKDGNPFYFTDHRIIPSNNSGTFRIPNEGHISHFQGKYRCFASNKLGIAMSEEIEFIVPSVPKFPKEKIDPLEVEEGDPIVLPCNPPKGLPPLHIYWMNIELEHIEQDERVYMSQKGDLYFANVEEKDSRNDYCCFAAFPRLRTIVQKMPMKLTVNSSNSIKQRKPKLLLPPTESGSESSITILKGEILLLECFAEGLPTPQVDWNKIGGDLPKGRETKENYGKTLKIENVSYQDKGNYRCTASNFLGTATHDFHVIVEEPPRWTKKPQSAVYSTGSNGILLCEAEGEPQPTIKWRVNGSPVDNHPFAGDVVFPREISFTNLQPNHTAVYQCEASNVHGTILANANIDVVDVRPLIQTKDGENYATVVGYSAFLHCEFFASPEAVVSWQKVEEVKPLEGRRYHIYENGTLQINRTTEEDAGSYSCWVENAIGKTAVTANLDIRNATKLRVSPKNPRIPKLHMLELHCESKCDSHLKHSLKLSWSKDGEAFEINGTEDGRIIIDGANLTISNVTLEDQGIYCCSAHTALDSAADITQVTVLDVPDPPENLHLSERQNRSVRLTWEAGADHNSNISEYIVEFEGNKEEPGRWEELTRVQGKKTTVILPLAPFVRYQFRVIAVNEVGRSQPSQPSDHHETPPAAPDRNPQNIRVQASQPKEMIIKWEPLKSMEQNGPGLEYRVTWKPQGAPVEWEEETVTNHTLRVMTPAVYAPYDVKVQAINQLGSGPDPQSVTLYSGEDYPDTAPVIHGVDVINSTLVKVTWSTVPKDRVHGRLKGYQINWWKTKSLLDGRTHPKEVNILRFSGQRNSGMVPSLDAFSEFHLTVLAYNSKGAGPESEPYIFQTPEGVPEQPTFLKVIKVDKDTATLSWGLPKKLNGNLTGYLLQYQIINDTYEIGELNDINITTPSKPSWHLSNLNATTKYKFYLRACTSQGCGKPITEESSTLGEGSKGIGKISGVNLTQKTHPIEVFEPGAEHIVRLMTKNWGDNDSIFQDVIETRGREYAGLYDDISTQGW
Experimental: as §1

[3] = target: T3, recombinant hexahistidine-tagged human Neurofascin (human, UniProt O94856 25-1217, limits assumed); test: direct ELISA on plate-coated human Neurofascin-His, HRP goat anti-mouse detection
T3 construct: Hexahistidine-tagged; also called plate-coated human Neurofascin
T3 sequence (looked up): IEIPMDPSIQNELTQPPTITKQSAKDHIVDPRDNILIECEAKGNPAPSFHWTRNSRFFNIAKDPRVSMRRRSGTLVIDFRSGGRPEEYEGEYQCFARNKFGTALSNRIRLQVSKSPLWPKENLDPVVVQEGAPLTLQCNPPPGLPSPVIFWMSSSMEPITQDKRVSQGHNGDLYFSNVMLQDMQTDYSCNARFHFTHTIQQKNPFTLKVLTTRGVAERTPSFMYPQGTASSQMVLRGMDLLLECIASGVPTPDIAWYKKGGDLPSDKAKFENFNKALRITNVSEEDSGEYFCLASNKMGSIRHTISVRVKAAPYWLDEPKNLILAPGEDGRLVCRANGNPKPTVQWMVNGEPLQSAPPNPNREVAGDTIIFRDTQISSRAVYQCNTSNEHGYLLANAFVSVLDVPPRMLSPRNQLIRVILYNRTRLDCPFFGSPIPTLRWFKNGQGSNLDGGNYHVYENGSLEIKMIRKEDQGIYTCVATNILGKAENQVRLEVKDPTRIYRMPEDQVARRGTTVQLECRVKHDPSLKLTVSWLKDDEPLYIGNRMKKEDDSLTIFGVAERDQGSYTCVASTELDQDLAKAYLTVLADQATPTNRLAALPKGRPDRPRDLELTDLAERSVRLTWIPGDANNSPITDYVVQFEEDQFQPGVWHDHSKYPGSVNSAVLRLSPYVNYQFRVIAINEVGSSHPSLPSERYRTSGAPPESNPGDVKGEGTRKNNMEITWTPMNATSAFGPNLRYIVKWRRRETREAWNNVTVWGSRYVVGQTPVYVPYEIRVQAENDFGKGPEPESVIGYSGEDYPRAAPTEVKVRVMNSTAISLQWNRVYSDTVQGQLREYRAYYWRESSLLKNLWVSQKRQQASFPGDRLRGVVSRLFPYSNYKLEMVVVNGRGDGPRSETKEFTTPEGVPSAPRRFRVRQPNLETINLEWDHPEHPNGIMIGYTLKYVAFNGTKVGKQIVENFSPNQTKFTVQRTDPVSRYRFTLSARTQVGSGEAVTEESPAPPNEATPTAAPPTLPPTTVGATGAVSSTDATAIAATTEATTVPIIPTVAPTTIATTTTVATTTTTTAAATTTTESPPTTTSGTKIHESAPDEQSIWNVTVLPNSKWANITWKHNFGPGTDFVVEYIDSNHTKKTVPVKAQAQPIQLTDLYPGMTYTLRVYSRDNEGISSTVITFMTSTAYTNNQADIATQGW
Experimental: as §1

[4] = target: T4, soluble His-tagged human L1CAM (extracellular portion, amino acids 20 to 1120) (human, UniProt P32004 20-1120); test: SPR (Biacore T200), antibody captured on C1 Protein A chip, His-tagged human L1CAM as analyte 10, 20, 40 nM, 1:1 Langmuir fit
T4 construct: range 20-1120; Expressed in HEK cells with an N-terminal leader peptide for secretion (not part of the assayed protein)
T4 sequence (P32004 other isoform, or with tags, fused parts or gaps limits assumed): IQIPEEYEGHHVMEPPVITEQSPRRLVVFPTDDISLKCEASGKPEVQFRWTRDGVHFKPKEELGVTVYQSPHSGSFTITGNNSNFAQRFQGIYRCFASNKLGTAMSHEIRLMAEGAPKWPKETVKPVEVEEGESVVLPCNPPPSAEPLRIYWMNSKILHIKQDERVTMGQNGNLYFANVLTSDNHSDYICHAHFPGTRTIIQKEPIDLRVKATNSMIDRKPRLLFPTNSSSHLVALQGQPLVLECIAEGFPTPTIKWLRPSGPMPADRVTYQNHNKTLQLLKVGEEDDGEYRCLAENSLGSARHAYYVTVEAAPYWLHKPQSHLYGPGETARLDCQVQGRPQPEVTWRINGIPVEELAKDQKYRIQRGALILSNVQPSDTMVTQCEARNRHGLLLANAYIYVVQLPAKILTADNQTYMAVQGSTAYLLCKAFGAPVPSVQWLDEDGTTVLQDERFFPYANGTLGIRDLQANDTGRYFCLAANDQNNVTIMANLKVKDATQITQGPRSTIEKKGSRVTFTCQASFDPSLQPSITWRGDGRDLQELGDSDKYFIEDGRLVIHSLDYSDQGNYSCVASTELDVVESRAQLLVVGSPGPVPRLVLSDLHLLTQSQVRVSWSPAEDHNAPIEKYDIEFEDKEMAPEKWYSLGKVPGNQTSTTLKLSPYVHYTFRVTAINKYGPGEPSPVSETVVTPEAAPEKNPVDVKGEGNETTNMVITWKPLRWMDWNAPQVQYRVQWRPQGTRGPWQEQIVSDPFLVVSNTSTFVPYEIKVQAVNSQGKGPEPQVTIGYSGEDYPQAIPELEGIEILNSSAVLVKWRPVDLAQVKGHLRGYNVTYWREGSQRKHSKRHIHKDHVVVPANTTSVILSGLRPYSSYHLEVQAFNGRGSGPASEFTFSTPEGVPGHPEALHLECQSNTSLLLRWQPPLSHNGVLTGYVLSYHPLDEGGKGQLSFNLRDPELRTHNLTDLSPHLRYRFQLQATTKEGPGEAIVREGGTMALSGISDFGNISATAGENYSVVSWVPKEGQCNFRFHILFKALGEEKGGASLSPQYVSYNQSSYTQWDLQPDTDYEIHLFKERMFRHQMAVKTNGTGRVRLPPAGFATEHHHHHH
Experimental: Monovalent kinetic binding constants of the eight humanized antibody variants towards human L1CAM were determined by surface plasmon resonance using a Biacore T200 instrument. Antibodies were captured via their Fc regions on a C1 Protein A Chip (GE Healthcare), and soluble His-tagged human L1CAM was injected as analyte in 3 different concentrations (10, 20 and 40 nM), using 10 mM HEPES/150 mM NaCl/3 mM EDTA/0.05% Tween 20 as running buffer. Detected resonance units (sensorgrams) were fitted to a 1:1 Langmuir binding model and association (kₐ) and dissociation (kd) rate constants as well as the affinity constants (KD) were calculated.

binding result [1]: no binding (tested: 1 µg/mL)
binding result [2]: no binding (tested: 1 µg/mL)
binding result [3]: no binding (tested: 1 µg/mL)
B1: OV549.20 mouse IgG2a (antibody, V domains shown)
VH: DVQLQESGPGLVKPSQSLSLTCTVTGYSITSDYAWNWIRQFPGNKVEWMGYISYSGSFSYHPSLKSRISITRDTSKNQFFLQLSSVTTEDTATYYCARSFSYGYGFAYWGQGTLVTVSS
VL: DIVMTQSHKFMSTSVGDRVNITCKASQDVSSAVAWYQQKPGQSPKLLIYSASYRYTGVPDHFTGSGSGTDFTFTISSVQAEDLAVYYCQQHYSTPWTFGGGTKLEIKR
modifications: N-glycosylation motif Asn-Ile-Thr in the variable region; glycosylated and non-glycosylated light chain forms present
notes: Recombinant mouse IgG2a expressed in CHO K1 cells; also called OV549.20 (murine); mAb OV549.20

Kd [4]: 6.3 nM
koff [4]: 0.000859 s⁻¹
kon [4]: 137000 M⁻¹ s⁻¹
B2: H4L2 (antibody, V domains shown)
VH: B1 VH with D1Q, S17T, I68V, S69T, T71S, F80S, Q82K, T88A, E89A, T93V
VL: DIVMTQSPSSLSASVGDRVTITCKASQDVSSAVAWYQQKPGQSPKLLIYSASYRYTGVPDRFSGSGSGTDFTFTISSLQPEDFATYYCQQHYSTPWTFGGGTKLEIK
notes: also called humanized antibody variant H4L2
